According to patent publication US20080058263A1 (published 2008):

Tests used:
Experiment in all cases: receptor-Fc IP
VEGFR-1-Fc = target: T1, VEGFR-1-Fc (UniProt P17948 27-338)
T1 construct: domain: first three Ig domains; expressed in Drosophila S2 cells, purified on Protein A sepharose; also called VEGFR-1-Fc fusion protein; not shown: Fc fragment from the Signal-pIgPlus vector
Outline: (§1)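 Binding of ligand from sample supernatant measured by pentahistidine-antibody immunoprecipitation. IP mix: PBS with 1.5% BSA, 0.06% Tween 20, 3 μg/ml heparin and 400 ng/ml fusion protein, added 1:2 to sample supernatant.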

VEGFR-2-Fc = target: T2, VEGFR-2-Fc (UniProt P35968 20-322)
T2 construct: domain: first 3 Ig domains; conditioned supernatant of 293T cells; also called VEGFR-2-Fc fusion protein; not shown: Fc fragment of the pIg vector
Outline: as §1

VEGFR-3-Fc = target: T3, VEGFR-3-Fc (UniProt P35916 25-328)
T3 construct: domain: first three Ig domains; conditioned supernatant of 293T cells; also called VEGFR-3-Fc fusion protein; not shown: Fc fragment of the pIg vector
T3 sequence (looked up): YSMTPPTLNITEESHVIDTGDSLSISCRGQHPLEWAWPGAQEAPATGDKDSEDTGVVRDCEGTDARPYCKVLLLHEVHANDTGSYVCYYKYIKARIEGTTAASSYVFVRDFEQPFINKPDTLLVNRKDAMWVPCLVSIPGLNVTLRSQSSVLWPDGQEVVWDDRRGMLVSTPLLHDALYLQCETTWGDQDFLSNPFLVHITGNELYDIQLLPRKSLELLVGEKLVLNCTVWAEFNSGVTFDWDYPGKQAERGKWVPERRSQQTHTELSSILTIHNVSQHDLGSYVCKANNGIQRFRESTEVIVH
Outline: as §1

Measured: binding result

T2 sequence (P35968 20-322): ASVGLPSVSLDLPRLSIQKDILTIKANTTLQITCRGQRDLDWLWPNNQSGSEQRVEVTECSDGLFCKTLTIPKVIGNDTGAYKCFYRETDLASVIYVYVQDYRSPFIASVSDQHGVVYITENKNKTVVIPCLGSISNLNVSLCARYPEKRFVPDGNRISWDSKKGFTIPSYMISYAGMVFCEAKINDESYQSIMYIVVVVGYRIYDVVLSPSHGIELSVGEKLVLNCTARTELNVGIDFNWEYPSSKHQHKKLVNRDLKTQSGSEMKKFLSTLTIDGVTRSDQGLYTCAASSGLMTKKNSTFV
T1 sequence (P17948 27-338): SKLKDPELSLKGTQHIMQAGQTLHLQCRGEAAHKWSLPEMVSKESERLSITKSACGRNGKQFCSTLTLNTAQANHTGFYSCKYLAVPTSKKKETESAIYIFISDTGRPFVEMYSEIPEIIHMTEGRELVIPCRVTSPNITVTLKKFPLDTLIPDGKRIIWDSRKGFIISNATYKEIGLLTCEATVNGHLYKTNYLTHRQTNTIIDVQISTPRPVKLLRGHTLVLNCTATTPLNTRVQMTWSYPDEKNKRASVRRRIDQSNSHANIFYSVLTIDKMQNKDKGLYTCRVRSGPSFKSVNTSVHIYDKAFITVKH

B1: 74-1 (ligand)
chain: GQNHHEVVKSIDNEWRKTQCMPREVCIDVGKEFGVATNTFFKPSCVPLMRCGGCCNDEGLECVPTEESNITMQIMRIKPHQGQHIGEMSFLQHNKCECRPKKD
no binding: VEGFR-1-Fc | VEGFR-2-Fc | VEGFR-3-Fc

B2: 74-3 (ligand)
chain: GQNHHEVVKSIDNEWRKTQCMPREVCIDVGKEFGVATNTFFKPSCVPLMRCGGCCNSEGLQCVPTEESNITMQIMRIKPHQGQHIGEMSFLQHNKCECRPKKD
no binding: VEGFR-1-Fc | VEGFR-2-Fc | VEGFR-3-Fc

B3: 82-1 (ligand)
chain: AHYNTEILKFMDVYQRSYCHPIETLVDIFQEFGVATNTFFKPPCVSVYRCGGCCNDEGLECVPTEESNITMQIMRIKPHQGQHIGEMSFLQHNKCECRPKKD
no binding: VEGFR-1-Fc | VEGFR-2-Fc | VEGFR-3-Fc

B4: 82-3 (ligand)
chain: AHYNTEILKFMDVYQRSYCHPIETLVDIFQEFGVATNTFFKPPCVSVYRCGGCCNSEGLQCVPTEESNITMQIMRIKPHQGQHIGEMSFLQHNKCECRPKKD
no binding: VEGFR-1-Fc | VEGFR-2-Fc | VEGFR-3-Fc

B5: 71-8 (ligand)
chain: GQNHHEVVKSIDNEWRKTQCMPREVCIDVGKEYPDEIEYIFKPSCVPLMRCGGCCNSEGLQCMNTSTSYLSKTLFEIKPHQGQHIGEMSFANHTSCRCMSKLD
no binding: VEGFR-1-Fc | VEGFR-2-Fc | VEGFR-3-Fc

B6: 74-6 (ligand)
chain: GQNHHEVVKSIDNEWRKTQCMPREVCIDVGKEFGVATNTFFKPSCVPLMRCGGCCNDEGLECMNTSTSYLSKTLFEIKPHQGQHIGEMSFANHTSCRCMSKLD
no binding: VEGFR-1-Fc | VEGFR-2-Fc | VEGFR-3-Fc

B7: 74-15 (ligand)
chain: GQNHHEVVKSIDNEWRKTQCMPREVCIDVGKEFGVATNTFFKPSCVPLMRCGGCCNSEGLQCVPTEESNITMQIMRITVPLSQGPKPVTISFANHTSCRCMSKLD
no binding: VEGFR-1-Fc | VEGFR-2-Fc | VEGFR-3-Fc

B8: 74-16 (ligand)
chain: GQNHHEVVKSIDNEWRKTQCMPREVCIDVGKEFGVATNTFFKPSCVPLMRCGGCCNSEGLQCMNTSTSYLSKTLFEITVPLSQGPKPVTISFANHTSCRCMSKLD
no binding: VEGFR-1-Fc | VEGFR-2-Fc | VEGFR-3-Fc

B9: 71-10 (ligand)
chain: GQNHHEVVKSIDNEWRKTQCMPREVCIDVGKEYPDEIEYIFKPSCVPLMRCGGCCNDEGLECMNTSTSYLSKTLFEITVPLSQGPKPVTISFLQHNKCECRPKKD
no binding: VEGFR-1-Fc | VEGFR-2-Fc | VEGFR-3-Fc

B10: 71-16 (ligand)
chain: GQNHHEVVKSIDNEWRKTQCMPREVCIDVGKEYPDEIEYIFKPSCVPLMRCGGCCNSEGLQCMNTSTSYLSKTLFEITVPLSQGPKPVTISFANHTSCRCMSKLD
no binding: VEGFR-1-Fc | VEGFR-2-Fc | VEGFR-3-Fc

B11: 71-12 (ligand)
chain: GQNHHEVVKSIDNEWRKTQCMPREVCIDVGKEYPDEIEYIFKPSCVPLMRCGGCCNSEGLQCMNTSTSYLSKTLFEITVPLSQGPKPVTISFLQHNKCECRPKKD
no binding: VEGFR-1-Fc | VEGFR-2-Fc | VEGFR-3-Fc

B12: 73-10 (ligand)
chain: GQNHHEVVKSIDNEWRKTQCMPREVCIDVGKEYPDEIEYIFKPPCVSVYRCGGCCNDEGLECMNTSTSYLSKTLFEITVPLSQGPKPVTISFLQHNKCECRPKKD
no binding: VEGFR-1-Fc | VEGFR-2-Fc | VEGFR-3-Fc

B13: 73-12 (ligand)
chain: GQNHHEVVKSIDNEWRKTQCMPREVCIDVGKEYPDEIEYIFKPPCVSVYRCGGCCNSEGLQCMNTSTSYLSKTLFEITVPLSQGPKPVTISFLQHNKCECRPKKD
no binding: VEGFR-1-Fc | VEGFR-2-Fc | VEGFR-3-Fc

B14: 73-1 (ligand)
chain: GQNHHEVVKSIDNEWRKTQCMPREVCIDVGKEYPDEIEYIFKPPCVSVYRCGGCCNDEGLECVPTEESNITMQIMRIKPHQGQHIGEMSFLQHNKCECRPKKD
no binding: VEGFR-1-Fc | VEGFR-2-Fc | VEGFR-3-Fc

B15: 73-3 (ligand)
chain: GQNHHEVVKSIDNEWRKTQCMPREVCIDVGKEYPDEIEYIFKPPCVSVYRCGGCCNSEGLQCVPTEESNITMQIMRIKPHQGQHIGEMSFLQHNKCECRPKKD
no binding: VEGFR-1-Fc | VEGFR-2-Fc | VEGFR-3-Fc

B16: 73-2 (ligand)
chain: GQNHHEVVKSIDNEWRKTQCMPREVCIDVGKEYPDEIEYIFKPPCVSVYRCGGCCNDEGLECMNTSTSYLSKTLFEIKPHQGQHIGEMSFLQHNKCECRPKKD
no binding: VEGFR-1-Fc | VEGFR-2-Fc | VEGFR-3-Fc

B17: 74-2 (ligand)
chain: GQNHHEVVKSIDNEWRKTQCMPREVCIDVGKEFGVATNTFFKPSCVPLMRCGGCCNDEGLECMNTSTSYLSKTLFEIKPHQGQHIGEMSFLQHNKCECRPKKD
no binding: VEGFR-1-Fc | VEGFR-2-Fc | VEGFR-3-Fc

B18: 74-4 (ligand)
chain: GQNHHEVVKSIDNEWRKTQCMPREVCIDVGKEFGVATNTFFKPSCVPLMRCGGCCNSEGLQCMNTSTSYLSKTLFEIKPHQGQHIGEMSFLQHNKCECRPKKD
no binding: VEGFR-1-Fc | VEGFR-2-Fc | VEGFR-3-Fc

B19: 71-7 (ligand)
chain: GQNHHEVVKSIDNEWRKTQCMPREVCIDVGKEYPDEIEYIFKPSCVPLMRCGGCCNSEGLQCVPTEESNITMQIMRIKPHQGQHIGEMSFANHTSCRCMSKLD
no binding: VEGFR-1-Fc | VEGFR-2-Fc | VEGFR-3-Fc

B20: 73-5 (ligand)
chain: GQNHHEVVKSIDNEWRKTQCMPREVCIDVGKEYPDEIEYIFKPPCVSVYRCGGCCNDEGLECVPTEESNITMQIMRIKPHQGQHIGEMSFANHTSCRCMSKLD
no binding: VEGFR-1-Fc | VEGFR-2-Fc | VEGFR-3-Fc
